# Patent US20040038297
# T1: complement factor C4, P0C0L4
# T1 chain: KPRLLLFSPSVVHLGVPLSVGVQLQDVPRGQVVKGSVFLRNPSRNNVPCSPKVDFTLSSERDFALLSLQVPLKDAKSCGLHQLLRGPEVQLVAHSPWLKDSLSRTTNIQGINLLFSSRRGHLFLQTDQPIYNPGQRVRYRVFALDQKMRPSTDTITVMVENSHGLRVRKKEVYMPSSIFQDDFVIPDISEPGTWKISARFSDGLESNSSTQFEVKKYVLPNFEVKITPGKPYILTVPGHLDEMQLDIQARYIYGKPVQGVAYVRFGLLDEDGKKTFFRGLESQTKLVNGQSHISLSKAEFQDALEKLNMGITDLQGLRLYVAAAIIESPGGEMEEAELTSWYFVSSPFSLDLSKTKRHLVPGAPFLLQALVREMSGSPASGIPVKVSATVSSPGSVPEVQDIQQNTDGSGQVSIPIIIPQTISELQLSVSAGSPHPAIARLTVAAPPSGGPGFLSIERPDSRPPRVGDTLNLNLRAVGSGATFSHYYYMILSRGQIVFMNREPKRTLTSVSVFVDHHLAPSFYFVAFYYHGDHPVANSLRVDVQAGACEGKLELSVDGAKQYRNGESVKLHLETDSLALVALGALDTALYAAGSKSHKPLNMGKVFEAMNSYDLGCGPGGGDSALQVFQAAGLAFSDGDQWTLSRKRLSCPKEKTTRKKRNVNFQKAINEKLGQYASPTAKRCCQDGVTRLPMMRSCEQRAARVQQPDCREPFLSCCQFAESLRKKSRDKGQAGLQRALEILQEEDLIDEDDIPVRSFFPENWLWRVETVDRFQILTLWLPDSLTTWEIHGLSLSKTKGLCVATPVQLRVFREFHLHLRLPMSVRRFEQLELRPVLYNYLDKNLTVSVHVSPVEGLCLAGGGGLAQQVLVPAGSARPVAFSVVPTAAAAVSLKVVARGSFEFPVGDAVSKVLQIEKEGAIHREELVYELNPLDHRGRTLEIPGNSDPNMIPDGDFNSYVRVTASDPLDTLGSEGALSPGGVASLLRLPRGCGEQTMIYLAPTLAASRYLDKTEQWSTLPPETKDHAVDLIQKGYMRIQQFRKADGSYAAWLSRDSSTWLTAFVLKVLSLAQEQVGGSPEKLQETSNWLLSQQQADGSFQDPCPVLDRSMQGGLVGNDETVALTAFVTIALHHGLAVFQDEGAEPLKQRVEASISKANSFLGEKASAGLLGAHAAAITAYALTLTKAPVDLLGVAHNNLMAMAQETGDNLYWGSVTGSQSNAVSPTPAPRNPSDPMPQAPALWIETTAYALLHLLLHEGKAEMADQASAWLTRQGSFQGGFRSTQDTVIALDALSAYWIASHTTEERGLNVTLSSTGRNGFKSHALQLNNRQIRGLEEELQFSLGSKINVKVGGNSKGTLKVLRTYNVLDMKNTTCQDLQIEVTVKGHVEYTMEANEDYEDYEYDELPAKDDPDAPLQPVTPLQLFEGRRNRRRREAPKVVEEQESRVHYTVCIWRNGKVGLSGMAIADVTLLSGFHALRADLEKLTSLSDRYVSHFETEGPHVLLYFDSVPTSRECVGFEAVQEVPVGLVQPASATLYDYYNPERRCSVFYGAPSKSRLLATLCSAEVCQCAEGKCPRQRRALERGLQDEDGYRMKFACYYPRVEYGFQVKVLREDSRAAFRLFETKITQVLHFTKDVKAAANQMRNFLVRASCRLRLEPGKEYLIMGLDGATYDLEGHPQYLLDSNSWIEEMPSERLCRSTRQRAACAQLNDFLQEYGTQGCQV
# Target: T1, complement factor C4, P0C0L4
row,Protein,C4 deposition on a Western blot incubated with human serum (C4 converting activity)
1,mannan-binding lectin associated serine protease-2 (MASP-2) (protein) TPLGPKWPEPVFGRLASPGFPGEYANDQERRWTLTAPPGYRLRLYFTHFDLELSHLCEYDFVKLSSGAKVLATLCGQESTDTERAPGKDTFYSLGSSLDITFRSDYSNEKPFTGFEAFYAAEDIDECQVAPGEAPTCDHHCHNHLGGFYCSCRAGYVLHRNKRTCSALCSGQVFTQRSGELSSPEYPRPYPKLSSCTYSISLEEGFSVILDFVESFDVETHPETLCPYDFLKIQTDREEHGPFCGKTLPHRIETKSNTVTITFVTDESGDHTGWKIHYTSTAHACPYPMAPPNGHVSPVQAKYILKDSFSIFCETGYELLQGHLPLKSFTAVCQKDGSWDRPMPACSIVDCGPPDDLPSGRVEYITGPGVTTYKAVIQYSCEETFYTMKVNDGKYVCEADGFWTSSKGEKSLPVCEPVCGLSARTTGGRIYGGQKAKPGDFPWQVLILGGTTAAGALLYDNWVLTAAHAVYEQKHDASALDIRMGTLKRLSPHYTQAWSEAVFIHEGYTHDAGFDNDIALIKLNNKVVINSNITPICLPRKEAESFMRTDDIGTASGWGLTQRGFLARNLMYVDIPIVDHQKCTAAYEKPPYPRGSVTANMLCAGLESGGKDSCRGDSGGALVFLDSETERWFVGGIVSWGSMNCGEAGQYGVYTKVINYIPWIENIISDF,C4 was deposited at a position corresponding to the MASP-2 band
2,MASP-1 (MBP-associated serine protease) (protein) HTVELNNMFGQIQSPGYPDSYPSDSEVTWNITVPDGFRIKLYFMHFNLESSYLCEYDYVKVETEDQVLATFCGRETTDTEQTPGQEVVLSPGSFMSITFRSDFSNEERFTGFDAHYMAVDVDECKEREDEELSCDHYCHNYIGGYYCSCRFGYILHTDNRTCRVECSDNLFTQRTGVITSPDFPNPYPKSSECLYTIELEEGFMVNLQFEDIFDIEDHPEVPCPYDYIKIKVGPKVLGPFCGEKAPEPISTQSHSVLILFHSDNSGENRGWRLSYRAAGNECPELQPPVHGKIEPSQAKYFFKDQVLVSCDTGYKVLKDNVEMDTFQIECLKDGTWSNKIPTCKIVDCRAPGELEHGLITFSTRNNLTTYKSEIKYSCQEPYYKMLNNNTGIYTCSAQGVWMNKVLGRSLPTCLPVCGLPKFSRKLMARIFNGRPAQKGTTPWIAMLSHLNGQPFCGGSLLGSSWIVTAAHCLHQSLDPEDPTLRDSDLLSPSDFKIILGKHWRLRSDENEQHLGVKHTTLHPQYDPNTFENDVALVELLESPVLNAFVMPICLPEGPQQEGAMVIVSGWGKQFLQRFPETLMEIEIPIVDHSTCQKAYAPLKKKVTRDMICAGEKEGGKDACAGDSGGPMVTLNRERGQWYLVGTVSWGDDCGKKDRYGVYSYIHHNKDWIQRVTGVRN,no C4 deposition was observed at positions corresponding to MASP-1
3,C1s (protein) EPTMYGEILSPNYPQAYPSEVEKSWDIEVPEGYGIHLYFTHLDIELSENCAYDSVQIISGDTEEGRLCGQRSSNNPHSPIVEEFQVPYNKLQVIFKSDFSNEERFTGFAAYYVATDINECTDFVDVPCSHFCNNFIGGYFCSCPPEYFLHDDMKNCGVNCSGDVFTALIGEIASPNYPKPYPENSRCEYQIRLEKGFQVVVTLRREDFDVEAADSAGNCLDSLVFVAGDRQFGPYCGHGFPGPLNIETKSNALDIIFQTDLTGQKKGWKLRYHGDPMPCPKEDTPNSVWEPAKAKYVFRDVVQITCLDGFEVVEGRVGATSFYSTCQSNGKWSNSKLKCQPVDCGIPESIENGKVEDPESTLFGSVIRYTCEEPYYYMENGGGGEYHCAGNGSWVNEVLGPELPKCVPVCGVPREPFEEKQRIIGGSDADIKNFPWQVFFDNPWAGGALINEYWVLTAAHVVEGNREPTMYVGSTSVQTSRLAKSKMLTPEHVFIHPGWKLLEVPEGRTNFDNDIALVRLKDPVKMGPTVSPICLPGTSSDYNLMDGDLGLISGWGRTEKRDRAVRLKAARLPVAPLRKCKEVKVEKPTADAEAYVFTPNMICAGGEKGMDSCKGDSGGAFAVQDPNDKTKFYAAGLVSWGPQCGTYGLYTRVKNYVDWIMKTMQENSTPRED,"C4 deposition, which could be inhibited by enzyme inhibitors, was observed at a position corresponding to C1r and C1s, which are not separated by the technique employed"
